According to patent US7358333 (GENODYSSE S A, dated 2008):
Positions count from the first letter of the chain named. Numbers in names are those of the source.

Target: interferon receptor on MCF-7 breast carcinoma cells
Assay: cell-based or functional assay

B1: natural wild-type IFNα-5 protein (ligand)
chain: CDLPQTHSLSNRRTLMIMAQMGRISPFSCLKDRHDFGFPQEEFDGNQFQKAQAISVLHEMIQQTFNLFSTKDSSATWDETLLDKFYTELYQQLNDLEACMMQEVGVEDTPLMNVDSILTVRKYFQRITLYLTEKKYSPCAWEVVRAEIMRSFSLSANLQERLRRKE
  EC50, stimulation of Luciferase activity (pISRE-Luc reporter gene in MCF-7 cells): 5.67 pM

B2: C122S mutated IFNα-5 (ligand)
chain: B1 chain with C99S
  EC50, stimulation of Luciferase activity (pISRE-Luc reporter gene in MCF-7 cells): 93.3 pM
  ratio of the EC50 value for the mutated protein over the EC50 value for the wild-type protein (pISRE-Luc reporter gene in MCF-7 cells): 18.3 fold
